Test results taken from patent publication US20060134719.

How the values were obtained:
[1] = target: T1, A-type natriuretic peptide (ANP), P01160
T1 chain: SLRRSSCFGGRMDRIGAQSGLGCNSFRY

[2] = target: T2, C-type natriuretic peptide 22 (CNP 22), P23582
T2 chain: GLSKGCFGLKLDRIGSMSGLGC

[3] = target: T3, melanin-concentrating hormone (MCH), P20382
T3 chain: DFDMLRCMLGRVYRPCWQV

[4] = target: neuropeptide Y (NPY), P01303
[5] = target: T4, vasoactive intestinal peptide (VIP), P01282
T4 chain: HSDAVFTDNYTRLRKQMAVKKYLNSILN

[6] = target: T5, α-melanocyte stimulating hormone (α-MSH), P01189 (not fully specified)
T5 chain: SYSMEHFRWGKPV

B1: purified signal-FLAG-ARS-extracellular enzyme after the treatment with trypsin beads (protein)
chain: STQGFHVDHTAELRGIRWTSSLRRETSDYHRTLTPTLEALFVSSFQKTELEASCVGCSVLNYRDGNSSVLVHFQLHFLLRPLQTLSLGLEEELLQRGIRARLREHGISLAAYGTIVSAELTGRHKGPLAERDFKSGRCPGNSFSCGNSQCVTKVNPECDDQEDCSDGSDEAHCECGLQPAWRMAGRIVGGMEASPGEFPWQASLRENKEHFCGAAIINARWLVSAAHCFNEFQDPTKWVAYVGATYLSGSEASTVRAQVVQIVKHPLYNADTADFDVAVLELTSPLPFGRHIQPVCLPAATHIFPPSKKCLISGWGYLKEDFLVKPEVLQKATVELLDQALCASLYGHSLTDRMVCAGYLDGKVDSCQGDSGGPLVCEEPSGRFFLAGIVSWGIGCAEARRPGVYARVTRLRDWILEATTKASMPLAPTMAPAPAAPSTAWPTSPESPVVSTPTKSMQALSTVPLDWVTVPKLQGIFGAER
cleavage of the substrate peptide, HPLC analysis after reaction at 37° C. for 16 hours [1]: the enzyme sample selectively cleaved VIP, NPY, ANP, CNP, α-MSH, and MCH
cleavage of the substrate peptide, HPLC analysis after reaction at 37° C. for 16 hours [2]: the enzyme sample selectively cleaved VIP, NPY, ANP, CNP, α-MSH, and MCH
cleavage of the substrate peptide, HPLC analysis after reaction at 37° C. for 16 hours [3]: the enzyme sample selectively cleaved VIP, NPY, ANP, CNP, α-MSH, and MCH
cleavage of the substrate peptide, HPLC analysis after reaction at 37° C. for 16 hours [4]: the enzyme sample selectively cleaved VIP, NPY, ANP, CNP, α-MSH, and MCH
cleavage of the substrate peptide, HPLC analysis after reaction at 37° C. for 16 hours [5]: the enzyme sample selectively cleaved VIP, NPY, ANP, CNP, α-MSH, and MCH
cleavage of the substrate peptide, HPLC analysis after reaction at 37° C. for 16 hours [6]: the enzyme sample selectively cleaved VIP, NPY, ANP, CNP, α-MSH, and MCH
